This is an account of results in patent publication US20060281079.

Read-outs that look alike come from different tables or passages of the source.

For this data set, the system named is R2 protein (R2Bm reverse transcriptase/endonuclease) (Bombyx mori).
R2 protein (R2Bm reverse transcriptase/endonuclease) (Bombyx mori), sequence (chain, as listed by the source): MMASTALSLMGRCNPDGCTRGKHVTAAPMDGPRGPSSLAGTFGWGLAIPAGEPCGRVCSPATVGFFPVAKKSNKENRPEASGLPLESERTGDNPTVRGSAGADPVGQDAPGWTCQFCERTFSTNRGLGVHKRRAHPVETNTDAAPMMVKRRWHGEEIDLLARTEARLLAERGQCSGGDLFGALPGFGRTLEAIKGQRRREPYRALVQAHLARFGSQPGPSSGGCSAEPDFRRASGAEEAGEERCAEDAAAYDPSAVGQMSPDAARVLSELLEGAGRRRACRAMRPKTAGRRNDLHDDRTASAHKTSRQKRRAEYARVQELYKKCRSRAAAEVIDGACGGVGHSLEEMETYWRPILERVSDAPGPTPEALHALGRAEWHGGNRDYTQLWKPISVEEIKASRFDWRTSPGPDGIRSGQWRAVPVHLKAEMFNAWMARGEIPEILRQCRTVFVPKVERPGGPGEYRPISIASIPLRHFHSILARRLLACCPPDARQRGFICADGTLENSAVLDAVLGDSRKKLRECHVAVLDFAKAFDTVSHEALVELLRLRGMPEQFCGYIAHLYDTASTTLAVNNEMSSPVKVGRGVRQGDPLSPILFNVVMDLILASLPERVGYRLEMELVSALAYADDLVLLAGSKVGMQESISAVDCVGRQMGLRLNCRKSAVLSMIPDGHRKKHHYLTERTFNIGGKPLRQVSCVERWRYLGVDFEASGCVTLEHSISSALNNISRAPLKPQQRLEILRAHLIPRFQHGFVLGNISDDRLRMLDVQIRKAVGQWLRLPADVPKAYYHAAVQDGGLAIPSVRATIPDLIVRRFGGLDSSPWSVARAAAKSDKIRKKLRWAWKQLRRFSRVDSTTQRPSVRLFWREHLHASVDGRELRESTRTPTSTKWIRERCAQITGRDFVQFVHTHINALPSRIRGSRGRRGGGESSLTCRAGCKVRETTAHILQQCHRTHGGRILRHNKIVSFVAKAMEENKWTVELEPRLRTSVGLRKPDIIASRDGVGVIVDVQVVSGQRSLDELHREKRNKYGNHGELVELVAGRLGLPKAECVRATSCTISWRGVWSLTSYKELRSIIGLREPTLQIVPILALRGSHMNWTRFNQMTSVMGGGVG

183 nt vector RNA displayed a binding signal (RNA-primed reverse transcription relative to 254 nt R2 RNA, template jumps 15.1%) of 0.7.

In turn, 254 nt R2 3' UTR RNA returned a binding signal (RNA-primed reverse transcription without target DNA, template jumps 12.9%) of 1. Where the note is “RNA-primed reverse transcription relative to 254 nt R2 RNA, template jumps 3.9%”, 334 nt vector RNA gave a binding signal of 0.44.
